Laboratory results taken from patent US20130058934A1 (Novartis, published 2013).
One block for each binder: values may come before it.

Assays:
[1] = molecular target: T1, LRP6-Fc (R&D Systems, catalog No: 1505-LR) (human, UniProt O75581 20-1370); assay: ELISA on coated LRP6-Fc, pentaHis-HRP detection
T1 construct: Purchased reagent; also called LRP6 protein; 360 KD homodimer antigen LRP6-Fc; not shown: Fc part of the purchased fusion
T1 sequence (looked up): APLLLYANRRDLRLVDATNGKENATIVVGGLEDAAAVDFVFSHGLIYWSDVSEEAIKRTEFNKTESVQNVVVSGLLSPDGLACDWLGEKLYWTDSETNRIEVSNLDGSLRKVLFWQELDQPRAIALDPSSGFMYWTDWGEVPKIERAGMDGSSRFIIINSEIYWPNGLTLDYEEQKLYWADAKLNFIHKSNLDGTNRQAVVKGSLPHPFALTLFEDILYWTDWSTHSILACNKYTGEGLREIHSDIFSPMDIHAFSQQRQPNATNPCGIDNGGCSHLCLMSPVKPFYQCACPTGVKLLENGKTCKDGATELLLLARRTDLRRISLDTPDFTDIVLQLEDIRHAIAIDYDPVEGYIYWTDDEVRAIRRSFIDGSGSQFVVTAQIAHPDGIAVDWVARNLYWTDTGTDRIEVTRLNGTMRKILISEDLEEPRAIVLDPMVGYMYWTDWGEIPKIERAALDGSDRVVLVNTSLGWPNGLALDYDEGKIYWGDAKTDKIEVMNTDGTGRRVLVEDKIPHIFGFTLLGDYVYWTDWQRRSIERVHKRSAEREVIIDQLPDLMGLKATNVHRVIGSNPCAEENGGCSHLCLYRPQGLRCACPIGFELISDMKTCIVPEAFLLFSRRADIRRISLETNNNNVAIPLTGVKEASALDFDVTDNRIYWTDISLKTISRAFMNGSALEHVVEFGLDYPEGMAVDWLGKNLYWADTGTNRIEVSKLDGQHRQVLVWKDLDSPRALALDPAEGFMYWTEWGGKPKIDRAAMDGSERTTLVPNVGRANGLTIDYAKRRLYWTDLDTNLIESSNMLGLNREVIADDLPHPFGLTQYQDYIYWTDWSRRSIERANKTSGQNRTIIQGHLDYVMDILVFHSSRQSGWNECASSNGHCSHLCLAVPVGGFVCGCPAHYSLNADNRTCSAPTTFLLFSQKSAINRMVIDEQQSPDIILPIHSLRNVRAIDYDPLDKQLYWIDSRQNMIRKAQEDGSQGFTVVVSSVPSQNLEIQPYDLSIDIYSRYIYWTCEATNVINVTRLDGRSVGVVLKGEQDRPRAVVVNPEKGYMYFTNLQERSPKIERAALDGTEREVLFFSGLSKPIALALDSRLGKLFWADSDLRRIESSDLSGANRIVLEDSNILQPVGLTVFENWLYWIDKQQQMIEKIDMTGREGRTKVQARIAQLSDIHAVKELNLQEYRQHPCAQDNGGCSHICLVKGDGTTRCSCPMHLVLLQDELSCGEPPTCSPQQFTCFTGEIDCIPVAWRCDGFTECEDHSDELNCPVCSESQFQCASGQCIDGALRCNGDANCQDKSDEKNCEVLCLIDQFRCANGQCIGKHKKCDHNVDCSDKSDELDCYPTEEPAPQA
Protocol: (§1) Binding EC₅₀ of scFvs against LRP6 protein was measured by ELISA. Maxisorp plate was coated with LRP6-Fc (R&D Systems, catalog No: 1505-LR) at 3 μg/ml at 4° C. overnight. The plate was blocked with 50 μl of 2% BSA for one hour, and washed five times with the wash solution. The samples were diluted with 1% BSA accordingly. The plate was incubated at RT for 1 h, and washed for 3 times. Detection was done by adding 50 μl pentaHis-HRP (Qiagen Mat. No. 1014992) at 1:2000 dilution in 1% BSA, incubated at RT for 1 h, and washed 3 times. 50 μl of substrate reagent A plus B (R&D systems) was added, then incubated for 5-20 min depending on the color. The reaction was stopped by adding 25 μl of the stop solution, followed by plate reading at 450 nm.
For scFv06475, there were two mutations affecting the activity as detected by ELISA and Proteon kinetics analysis.

[2] = molecular target: T1, LRP6-Fc (R&D Systems, catalog No: …); assay: ELISA on coated LRP6-Fc, detection with pentaHis-HRP
Protocol: as §1
Affinity analysis ELISA EC₅₀ was carried out for both scFv08168 and scFv06475 wild type and variants.

[3] = molecular target: T2, LRP6 PD3/4 (human, UniProt O75581 631-1246); assay: Biacore T-100 SPR, antibody captured by anti-human IgG Fc on a CM4 chip, PD3/4 injected; N = 4
T2 construct: range 631-1246; Recombinant soluble fragment; also called Propeller Domains 3-4 of LRP6; recombinant LRP6 PD3/4
T2 sequence (looked up): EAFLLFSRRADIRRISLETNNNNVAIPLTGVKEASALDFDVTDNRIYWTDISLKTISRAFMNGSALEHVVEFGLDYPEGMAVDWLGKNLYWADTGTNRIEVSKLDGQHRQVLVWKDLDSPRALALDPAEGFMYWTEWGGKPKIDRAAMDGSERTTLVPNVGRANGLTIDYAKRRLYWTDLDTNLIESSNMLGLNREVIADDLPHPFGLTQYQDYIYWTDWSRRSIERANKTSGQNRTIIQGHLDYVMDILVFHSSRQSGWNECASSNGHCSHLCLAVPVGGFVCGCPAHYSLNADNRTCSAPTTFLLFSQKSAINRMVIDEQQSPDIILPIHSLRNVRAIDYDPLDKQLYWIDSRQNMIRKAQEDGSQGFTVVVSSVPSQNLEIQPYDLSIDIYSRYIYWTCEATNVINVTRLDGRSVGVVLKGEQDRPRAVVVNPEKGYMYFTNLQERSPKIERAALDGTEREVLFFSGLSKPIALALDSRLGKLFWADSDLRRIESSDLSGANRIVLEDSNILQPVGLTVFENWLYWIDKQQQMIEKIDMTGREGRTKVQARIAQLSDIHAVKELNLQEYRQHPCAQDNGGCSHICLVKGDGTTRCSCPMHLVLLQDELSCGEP
Protocol: (§2) The carboxymethyl dextran surface was activated with a 7 min injection of a 1:1 ratio of 0.4 M EDC (1-Ethyl-3-[3-dimethylaminopropyl]carbodiimide hydrochloride) and 0.1 M NHS(N-hydroxysuccinimide). […] PD1/2 and PD3/4 were prepared as two fold concentration series starting at 50 nM, and injected at 30 μl/min for 1 min. […] The surfaces were then regenerated two times with 10 mM glycine (pH 2.2). […] PD3/4 at a saturating concentration of 100 nM was then flowed over the surface at a flow rate of 30 μl/min for 30 min. A saturating concentration of 100 nM PD1/2 was injected immediately after the PD3/4. The dissociation constant (KD), association (kₒₙ), and dissociation (koff) rates were calculated from the baseline subtracted corrected binding curves using the BIAevaluation software (GE Healthcare).

[4] = molecular target: T2, LRP6 PD3/4; assay: Biacore T-100 SPR, antibody captured by anti-human IgG Fc on a CM4 chip, PD3/4 injected; N = 3
Protocol: as §2

[5] = molecular target: human FcRn (human, UniProt P55899 24-297; P61769 21-119, limits assumed); assay: Biacore, pH 6.0; human FcRn at pH 6.0, Biacore; IgG-scFv format (only low level binding at pH 7.4)
[6] = molecular target: T3, cynoFcRn (cynomolgus monkey, UniProt Q8SPV9); assay: Biacore, cynoFcRn at pH 6.0
T3 construct: also called cynomolgus FcRn

[7] = molecular target: T1, LRP6-Fc (R&D Systems, catalog No: …); assay: Proteon XPR36, scFv captured by anti-His IgG, LRP6-Fc as analyte, bivalent analyte model
Protocol: Kinetics experiments were performed using BioRad's Proteon XPR36 biosensor. All experiments were performed at room temperature using PBST (phosphate buffered saline with 0.05% Tween-20) as the running buffer. All of the six vertical channels on a GLM chip were activated for 5 min at a flow rate of 30 μl/min using freshly prepared mixture of EDC (400 mM) and sNHS (100 mM). Anti-His mouse IgG1 (R&D systems, catalog No: MAB050) was diluted to 20 μg/ml in 10 mM sodium acetate, PH 5.0 and coupled to the chip for 5 min along separate vertical channels at a flow rate of 30 μl/min. 1 M ethanolamine was then injected for 5 min at 30 μl/min to deactivate the un-reacted sNHS groups. 2 μg/ml MOR08168 scFv wild type or 2 μg/ml MOR08168D1 mutant was then immobilized on different vertical channels for 15 sec at 100 μl/min followed by two 1 min injection of the running buffer at 30 μl/min in the horizontal direction. The sixth vertical channel was used as the channel reference and no ligand was immobilized on this channel. […] Association was monitored for 5 min and dissociation was monitored for 20 min. Buffer was injected in the sixth channel to serve as a row reference for real time baseline drifting correction. […] Kinetics analysis on the Proteon was performed in Proteon Manager v.2.1.1. […]

[8] = molecular target: human LRP6 (human, UniProt O75581 20-1613); assay: cell-based or functional assay

B2: MOR06475 IgG (antibody, V domains shown)
VH: QVQLKESGPALVKPTQTLTLTCTFSGFSLSNRGGGVGWIRQPPGKALEWLAWIDWDDDKSYSTSLKTRLTISKDTSKNQVVLTMTNMDPVDTATYYCARMHLPLVFDSWGQGTLVTVSS
VL: DIVLTQSPATLSLSPGERATLSCRASQFIGSRYLAWYQQKPGQAPRLLIYGASNRATGVPARFSGSGSGTDFTLTISSLEPEDFATYYCQQYYDYPQTFGQGTKVEIKR
notes: also called MOR6475; MOR6475 (propeller 3 antibody)
Kd [3]: 1.13 nM
koff [3]: 0.000217 s⁻¹
kon [3]: 201000 M⁻¹ s⁻¹

B4: anti-LRP6 MOR08168hIgG1LALA 6475 scfv (bispecific antibody)
heavy: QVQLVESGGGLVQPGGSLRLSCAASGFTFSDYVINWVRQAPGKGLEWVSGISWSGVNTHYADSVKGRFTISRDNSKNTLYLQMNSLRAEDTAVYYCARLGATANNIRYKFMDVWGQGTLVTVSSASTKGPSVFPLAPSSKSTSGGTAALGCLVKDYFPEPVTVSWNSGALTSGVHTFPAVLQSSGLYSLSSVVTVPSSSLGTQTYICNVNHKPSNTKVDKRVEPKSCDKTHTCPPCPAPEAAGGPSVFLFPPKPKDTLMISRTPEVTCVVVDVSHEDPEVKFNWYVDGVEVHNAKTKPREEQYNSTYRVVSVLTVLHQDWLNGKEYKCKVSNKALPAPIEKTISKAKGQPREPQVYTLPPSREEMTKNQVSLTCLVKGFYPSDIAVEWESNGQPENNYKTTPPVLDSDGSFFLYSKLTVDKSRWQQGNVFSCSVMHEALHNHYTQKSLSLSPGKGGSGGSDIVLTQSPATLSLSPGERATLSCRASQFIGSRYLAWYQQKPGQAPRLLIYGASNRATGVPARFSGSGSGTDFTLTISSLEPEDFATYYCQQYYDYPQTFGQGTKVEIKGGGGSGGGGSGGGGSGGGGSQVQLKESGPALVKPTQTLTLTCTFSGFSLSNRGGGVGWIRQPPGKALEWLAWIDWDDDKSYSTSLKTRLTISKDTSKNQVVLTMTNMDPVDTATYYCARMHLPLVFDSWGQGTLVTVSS
light: DIELTQPPSVSVAPGQTARISCSGDSLRNKVYWYQQKPGQAPVLVIYKNNRPSGIPERFSGSNSGNTATLTISGTQAEDEADYYCQSYDGQKSLVFGGGTKLTVLGQPKAAPSVTLFPPSSEELQANKATLVCLISDFYPGAVTVAWKADSSPVKAGVETTTPSKQSNNKYAASSYLSLTPEQWKSHRSYSCQVTHEGSTVEKTVAPTECS
notes: Biparatopic: MOR08168 IgG1 LALA with MOR06475 scFv (VL-(Gly4Ser)4-VH) fused by a (GlyGlySer)2 linker to the C-terminus of CH3; also called Biparatopic anti-LRP6 IgG scFv
Kd [4]: 1.93 nM
koff [4]: 0.000314 s⁻¹
kon [4]: 211000 M⁻¹ s⁻¹
Kd [5]: 21 nM
Kd [6]: 120 nM

B5: scFv08168 wild type (scFv, V domains shown)
VH: QVQLVESGGGLVQPGGSLRLSCAASGFTFSDYVINWVRQAPGKGLEWVSGISWSGVNTHYADSVKGRFTISRDNSKNTLYLQMNSLRAEDTAVYYCARLGATANNIRYKFMDVWGQGTLVTVSS
VL: DIELTQPPSVSVAPGQTARISCSGDSLRNKVYWYQQKPGQAPVLVIYKNNRPSGIPERFSGSNSGNTATLTISGTQAEDEADYYCQSYDGQKSLVFGGGTKLTVL
notes: One polypeptide (scFv with His tag); also called MOR08168 scFv wild type
Kd [7]: 3.82 nM
IC50 by STF assay for Wnt1 inhibition [8]: 7.41 nM
EC50 [2]: 2.04 nM

The next lines start with the values.

EC50 [1]: 27 nM
EC50 [2]: 27.4 nM
B1: scFv06475 VH:G34V (scFv, name in Kabat numbering, V domains shown)
VH: QVQLKESGPALVKPTQTLTLTCTFSGFSLSNRGVGVGWIRQPPGKALEWLAWIDWDDDKSYSTSLKTRLTISKDTSKNQVVLTMTNMDPVDTATYYCARMHLPLVFDSWGQGTLVTVSS
VL: DIVLTQSPATLSLSPGERATLSCRASQFIGSRYLAWYQQKPGQAPRLLIYGASNRATGVPARFSGSGSGTDFTLTISSLEPEDFATYYCQQYYDYPQTFGQGTKVEIK
notes: Point mutant of scFv06475 (His tag)

EC50 [1]: 4.3 nM
B3: scFv06475 VH:I37F (scFv, name in Kabat numbering, V domains shown)
VH: QVQLKESGPALVKPTQTLTLTCTFSGFSLSNRGGGVGWFRQPPGKALEWLAWIDWDDDKSYSTSLKTRLTISKDTSKNQVVLTMTNMDPVDTATYYCARMHLPLVFDSWGQGTLVTVSS
VL: DIVLTQSPATLSLSPGERATLSCRASQFIGSRYLAWYQQKPGQAPRLLIYGASNRATGVPARFSGSGSGTDFTLTISSLEPEDFATYYCQQYYDYPQTFGQGTKVEIK
notes: as for B1

EC50 [2]: 0.98 nM
B6: scFv08168 VH:I34M (scFv, V domains shown)
VH: QVQLVESGGGLVQPGGSLRLSCAASGFTFSDYVMNWVRQAPGKGLEWVSGISWSGVNTHYADSVKGRFTISRDNSKNTLYLQMNSLRAEDTAVYYCARLGATANNIRYKFMDVWGQGTLVTVSS
VL: DIELTQPPSVSVAPGQTARISCSGDSLRNKVYWYQQKPGQAPVLVIYKNNRPSGIPERFSGSNSGNTATLTISGTQAEDEADYYCQSYDGQKSLVFGGGTKLTVL
notes: Point mutant of scFv08168 (His tag)

Kd [7]: 2.55 nM
EC50 [2]: 1.61 nM
B7: scFv08168 D1 (VH:I34M + VH:S49A) (scFv, V domains shown)
VH: QVQLVESGGGLVQPGGSLRLSCAASGFTFSDYVMNWVRQAPGKGLEWVAGISWSGVNTHYADSVKGRFTISRDNSKNTLYLQMNSLRAEDTAVYYCARLGATANNIRYKFMDVWGQGTLVTVSS
VL: DIELTQPPSVSVAPGQTARISCSGDSLRNKVYWYQQKPGQAPVLVIYKNNRPSGIPERFSGSNSGNTATLTISGTQAEDEADYYCQSYDGQKSLVFGGGTKLTVL
notes: Double mutant of scFv08168 (His tag); also called MOR08168D1 mutant; double mutant D1
